Patent US20030229041A1

Molecular target: bone morphogenetic protein 6 (UniProt P22004)
Assay: cell-based or functional assay

Chain of UniProt P22004 (P22004 382-513 limits assumed): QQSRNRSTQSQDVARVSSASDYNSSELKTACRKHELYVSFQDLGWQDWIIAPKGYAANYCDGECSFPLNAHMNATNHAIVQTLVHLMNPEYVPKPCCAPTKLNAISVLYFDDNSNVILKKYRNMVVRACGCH

## mouse noggin (from UniProt P97466 28-232)
  BMP-6 stimulated alkaline phosphatase activity in mouse mesenchymal C3H10T1/2 cells (IC50): 0.3 µg/mL
